Data set [1] concerns WM-164 cells. Kind of data set: Melanoma cell proliferation, methylene blue staining. Format: cell-based, human. As to conditions: for Relative Cell No. (%) WM-164: 3% FCS, 50 μg/ml recombinant protein. On the procedure:
In the methylene-blue staining method, 7000 cells were plated into each well of a 96-well plate, and treated as described above. Cells were then counted using the method of Oliver et al. (1989, J. Cell. Sci. 92:513-8). After 48 hours of treatment, all wells were washed with 100 μl of PBS, and the cells fixed with 10% formalin in neutral-buffered saline (Sigma Chemical Co., St. Louis, Mo., USA). The cells were then stained with 1% methylene blue (Sigma) in 0.01M borate buffer, pH 8.5. Wells were washed with 0.01M borate buffer, and the methylene blue extracted from the cells with 0.1N HCl/ethanol, and the absorbance measured in a microplate reader (Bio-Rad, Hercules, Calif., USA) at 655 nm. Polymyxin B (Sigma) at a final concentration of 5 μg/ml was used to inactivate endotoxin (Liu, S. et al., 1997, Clin. Biochem. 30:455-63).
Endothelial cell proliferation was performed by ^3H-thymidine incorporation or methylene blue staining as described above in Example 25. C-PAE cells (passages 2-4) were grown to confluence and kept contact inhibited for 48 hours. 786-O, PC-3 and WM-164 cells were used as non-endothelial controls, and were cultured as described in Example 25, above. HPE (human primary prostate epithelial cells) were cultured in keratinocyte-SFM supplemented with bovine pituitary and recombinant human EGF (Life Technologies/Gibco BRL, Gaithersburg, Md., USA). The melanoma cell line WM-164 was obtained from Dr. Meenhard Herlyn at the Wistar Institute (Philadelphia, Pa., USA), and was cultivated in 78% MCDB-153 medium, 10% L-15 medium, 10% tryptose phosphate broth, 2% FBS, and 50 units/ml insulin, as described by Herlyn et al. (1990, Adv. Cancer Res. 54:213-34).
Proliferation of endothelial cells (C-PAE cells) and WM-164 melanoma cells was assayed by methylene blue staining, as described above in Examples 25 and 34. The results are shown in FIGS. 33A and 33B, which are a pair of graphs showing the effect of increasing concentration (x-axis) of Tumstatin, Tum-1, Tum-2, Tum-3 and Tum-4 on the relative number (y-axis) of C-PAE cells (FIG. 33A) and WM-164 cells (FIG. 33B). […] Tum-4, however, did have anti-proliferative activity in this cell line. […] Only Tum-4 inhibited WM-164 melanoma cells.

Data set [2] deals with 786-O tumors. The data set can be described thus: 786-O renal cell carcinoma xenograft. Format: in vivo, athymic nude mice. As to conditions: for inhibition of tumor growth compared to placebo: 10 mg/kg I.P. daily, 10 days. Here is the method:
In the first group of six mice, the tumors were allowed to grow to about 700 mm^3. In a second group of six mice, the tumors were allowed to group to 100 mm^3. Arresten in sterile PBS was injected I.P. daily for 10 days, at a concentration of 20 mg/kg for the mice with tumors of 700 mm^3, and 10 mg/kg for the mice with tumors of 100 mm^3. Control mice received either BSA or the PBS vehicle. […] Tumors in the Arresten-treated mice shrank from 700 to 500 mm^3, while tumors in BSA-treated and control mice grew to about 1200 mm^3 in 10 days. […] The tumors were allowed to grow to either about 100 mm^3 or about 700^3. Each group contained 6 mice. Canstatin in sterile PBS was injected I.P. daily at a concentration of 10 mg/kg for 10 days. The control group received the same volume of PBS. The results are shown in FIGS. 17C (100 mm^3 tumors) and […] (700 mm^3 tumors). In both groups, the Canstatin-treated (.box-solid.) tumors actually shrank relative to the controls (□). Tumstatin's effect on another established primary tumors in mice was also studied. […] Tumstatin was intraperitoneally injected daily (6 mg/kg) for 10 days in sterile PBS. The control group received BSA injections. […] E. Coli-produced Tumstatin at 6 mg/kg inhibited the tumor growth of 786-O human renal cell carcinoma as compared to the BSA control (FIG. 27B). […] Each point represents the mean i SE of 5-6 mice per group. Data points marker with an asterisk were significant, with P<0.05 by one tailed Student's t test. […] The tumors were allowed to grow to a size of about 100-150 mm^3. The mice were then divided into groups of 5, and were injected daily intraperitoneally with 20 mg/kg of the E. Coli-expressed truncated Tumstatin lacking the 53 N-terminal amino acids (Kalluri, R. et al., 1996, J. Biol. Chem. 271:9062-68) for 10 days. Control mice received PBS injection. The results are shown in FIG. 28, which is a graph showing increase in tumor volume (y-axis) against day of treatment (x-axis) for control mice (□) and mice treated with the Tumstatin mutant N53 (●). […] Each point represents the mean ±SE of 5-6 mice/group. Data points marked with an asterisk were significant, with P<0.05 by one-tailed Student's t test.

Data set [3] relates to PC-3 tumors. To be noted: for tumor volume on day 10: 20 mg/kg i.p. daily for 10 days, control 202.8±50.0.
Procedure: In a second PC-3 experiment, PC-3 cells were harvested from culture and 3 million cells were injected into 6- to 7-week-old athymic nude mice, and tumors were allowed to grow subcutaneously for approximately 2 weeks after which the animals were divided into groups of four mice. Experimental groups (4 mice) were injected daily I.P. with Canstatin at a dosage of 3 mg/kg in a total volume of 0.2 ml of PBS or endostatin at a dosage of 8 mg/kg in the same volume of PBS. The control group (4 mice) received equal volumes of PBS each day. Tumor length and width were measured using a Vernier caliper and the tumor volume was calculated using the standard formula: length×width^2×0.52. Tumor volumes ranged from 26 mm^3 to 73 mm^3, and the calculated tumor volume on a given day was divided by the volume on treatment day 0 to produce a fractional tumor volume (V/V0), as described above.

B1: Tum-1: residues 54 to 244 of Tumstatin, lacking the N-terminal 53 amino acids (SEQ ID NO:22) (protein)
chain: QRAHGQDLGTLGSCLQRFTTMPFLFCNVNDVCNFASRNDYSYWLSTPALMPMNMAPITGRALEPYISRCTVCEGPAIAIAVHSQTTDIPPCPHGWISLWKGFSFIMFTSAGSEGTGQALASPGSCLEEFRASPFLECHGRGTCNYYSNSYSFWLASLNPERMFRKPIPSTVKAGELEKIISRCQVCMKKRH
modifications: Tum-1 (Tumstatin N-53) (amino acids 54-244 of SEQ ID NO10)
Regarding B1, in data set [1], the “effect on proliferation of WM-164 cells” value was “not affected” and the “Relative Cell No. (%) WM-164” value is recorded as 100.7 ± 2.7%. In addition, the “tumor volume on day 10” value in data set [2] (start 100-150 mm^3, 6 mg/kg in the result sentence (20 mg/kg in the method), control 345.0±24.0) was 110.0±29.0 mm^3. Further, the anti-tumor activity entry in data set [3] (PC3 prostate xenograft model, 5 mg or 20 mg per kilogram) is recorded as “substantial anti-tumor activity”.

B2: endostatin: tumor associated angiogenesis inhibitor used as comparator (protein, UniProt P39060 1572-1754, looked up)
Endostatin: HSHRDFQPVLHLVALNSPLSGGMRGIRGADFQCFQQARAVGLAGTFRAFLSSRLQDLYSIVRRADRAAVPIVNLKDELLFPSWEALFSGSEGPLKPGARIFSFDGKDVLRHPTWPQKSVWHGSDPNGRRLTESYCETWRTEAPSATGQASSLLGGRLLGQSAASCHHAYIVLCIENSFMTASK
modifications: Endostatin
In the case of B2, the tumor suppression result in data set [3] (5 mg/kg endostatin) is “not able to suppress tumor growth”. Moreover, the “tumor volume on day 10” value in data set [3] is 68.9±16.7 mm^3.

B3: Canstatin: NC1 domain of the α2 chain of Type IV collagen (SEQ ID NO:6) (protein, listed as Homo sapiens)
chain: VSIGYLLVKHSQTDQEPMCPVGMNKLWSGYSLLYFEGQEKAHNQDLGLAGSCLARFSTMPFLYCNPGDVCYYASRNDKSYWLSTTAPLPMMPVAEDEIKPYISRCSVCEAPAIAIAVHSQDVSIPHCPAGWRSLWIGYSFLMHTAAGDEGGGQSLVSPGSCLEDFRATPFIECNGGRGTCHYYANKYSFWLTTIPEQSFQGSPSADTLKAGLIRTHISRCQVCMKNL
For the molecule B3, the entries for the “inhibition of tumor growth compared to placebo” value in data set [2] (large (700 mm^3) tumors) and in data set [2] (small (100 mm^3) tumors) were 3 fold and 4 fold, respectively. Further, in data set [3] (3 mg/kg Canstatin), the “tumor suppression compared with endostatin” value is listed as “same suppressive effect as 8 mg/kg of endostatin”. Moreover, the “treated tumors, fold less than placebo” value in data set [3] (athymic (nu/nu) mice) worked out at 2.4 fold. Besides, the “condition of mice during treatment” value in data set [3] (mouse, in vivo) is “appeared healthy with no signs of wasting”.

B4: Tum-2: residues 1 to 132 of Tumstatin (SEQ ID NO:23) (protein)
chain: GLKGKRGDSGSPATWTTRGFVFTRHSQTTAIPSCPEGTVPLYSGFSFLFVQGNQRAHGQDLGTLGSCLQRFTTMPFLFCNVNDVCNFASRNDYSYWLSTPALMPMNMAPITGRALEPYISRCTVCEGPAIAI
modifications: Tum-2 (amino acids 1-132 of SEQ ID NO10)
Take B4: in data set [1], the “effect on proliferation of WM-164 cells” value is “not affected” and the “Relative Cell No. (%) WM-164” value stood at 96.2 ± 3.7%.

B5: Tumstatin-44-131: residues 44 to 131 of full-length Tumstatin (SEQ ID NO:33) (protein)
chain: FSFLFVQGNQRAHGQDLGTLGSCLQRFTTMPFLFCNVNDVCNFASRNDYSYWLSTPALMPMNMAPITGRALEPYISRCTVCEGPAIAI
modifications: Tumstatin-45-132 (amino acids 45-132 of SEQ ID NO10)
For the molecule B5, in data set [1], the “effect on proliferation of WM-164 cells” value is “not observed”.

B6: Tum-4: residues 181 to 244 of Tumstatin (SEQ ID NO:25) (protein)
chain: EFRASPFLECHGRGTCNYYSNSYSFWLASLNPERMFRKPIPSTVKAGELEKIISRCQVCMKKRH
modifications: Tum-4 (amino acids 181-244 of SEQ ID NO10)
In the case of B6, the “inhibition of WM-164 melanoma cells” value in data set [1] (50 μg/ml) was 46.1%. For the same molecule, the “Relative Cell No. (%) WM-164” value in data set [1] worked out at 52.4 ± 3.4 %.

B7: Tumstatin: NC1 domain of the α3 chain of type IV collagen, residues 1-244 (SEQ ID NO:10) (protein, listed as Homo sapiens)
chain: GLKGKRGDSGSPATWTTRGFVFTRHSQTTAIPSCPEGTVPLYSGFSFLFVQGNQRAHGQDLGTLGSCLQRFTTMPFLFCNVNDVCNFASRNDYSYWLSTPALMPMNMAPITGRALEPYISRCTVCEGPAIAIAVHSQTTDIPPCPHGWISLWKGFSFIMFTSAGSEGTGQALASPGSCLEEFRASPFLECHGRGTCNYYSNSYSFWLASLNPERMFRKPIPSTVKAGELEKIISRCQVCMKKRH
As to B7, the “effect on proliferation of WM-164 cells” value in data set [1] is “no inhibitory effects”. In addition, the “Relative Cell No. (%) WM-164” value in data set [1] is 100.0 ± 2.9%. The “tumor volume on day 10” value in data set [2] (6 mg/kg i.p. daily, start 600-700 mm^3, control 1096±179.7) came out at 619±120.7 mm^3; in data set [3], 82.9±25.2 mm^3.

(Values after patent US7387779B2, “Anti-angiogenic proteins and fragments and methods of use thereof” (Beth Israel Deaconess Medical Center, priority 1998, dated 2008).)
